B1: TPR t1 (parent)
chain: GACCAAUCUGCCCUCAGAGCUCGAGAACAUCUUCGGAUGCAGAGGAGGCAGGCUUCGGUGGCGCGAUAGCGCCAACGUCCUCAACCUCCAAUGCAUCCCACCACAUGAUGAUGCCUGAAGAGCCUUGGUUUUUUG

In the series the parent is B1. Nature of the series: polymerase ribozyme fitness, log enrichment relative to wild type (log ratio); higher = more active; in vitro selection for triplet polymerase activity. The procedure, abridged: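 Genotype fitness is the logarithm of its enrichment divided by wild-type enrichment, using inverse-variance-weighted averages of replicates. That logarithm is base 2. Enrichment was measured by Illumina sequencing of input and output libraries from one triplicate in vitro selection round, with frozen incubation at −7 °C, on PCR-built, transcribed mutant libraries of each subunit of a heterodimeric triplet polymerase ribozyme, retaining genotypes with ≥10 input reads and ≥1 read per output.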
With C115G C124U, the “polymerase ribozyme fitness (log ratio)” value is -1.13. Under U112C G128U stands -0.242. Under G117C C123U stands -4.89; under G113U U132A, -2.22. Take C114G U126G: the “polymerase ribozyme fitness (log ratio)” value was -4.32. Under G113U G128U stands -4.72; under G113U G128A, -3.35; under G113U G128C, -4.63. Under C114U G120U stands -2.8; under G113A A121G, -0.104. Under C115A G135U stands -0.547. On to C115U G127A, for which the “polymerase ribozyme fitness (log ratio)” value was -3.15. Under A111C A121C stands -0.386. Under A111C G117A stands -2; under A121C U130A, 0.644; under G113U C124U, -2.48.

For the variant C115A U116A, the “polymerase ribozyme fitness (log ratio)” value is -2.84. For the variant G113U G122C, the “polymerase ribozyme fitness (log ratio)” value was -2.73. Under A111G U133G stands -0.431; under A118G G122A U129A, -1.35. For C123U G135C, the “polymerase ribozyme fitness (log ratio)” value was found to be 1.48. Under C123U G135U stands -0.4; under C115G G117C, -5.84.

On to G110U G127A, for which the “polymerase ribozyme fitness (log ratio)” value was -2.05. Under G110U G127U stands -1.57; under G113A U125A, -1.24; under A111G U130G, -0.2. For G110C U131C G135A, the “polymerase ribozyme fitness (log ratio)” value was -2.51. For the variant A118G G135C, the “polymerase ribozyme fitness (log ratio)” value was -0.273. Under G113U C114G stands -2.89; under G117A G127A, -4.19; under G117A G127C, -1.7.

As for C115A C123G, the “polymerase ribozyme fitness (log ratio)” value was found to be 1.01. On to C123U U132A, for which the “polymerase ribozyme fitness (log ratio)” value came to 2.23. For the variant C114U A121U, the “polymerase ribozyme fitness (log ratio)” value was -1.32. Consider C115U G135U, for which the “polymerase ribozyme fitness (log ratio)” value is -1.91.

In the case of A111U U132A, the “polymerase ribozyme fitness (log ratio)” value is -2.14. In the case of G110C G120C, the “polymerase ribozyme fitness (log ratio)” value was -4.2. As to C124A G128A, the “polymerase ribozyme fitness (log ratio)” value is -0.565.

As to G113U G135U, the “polymerase ribozyme fitness (log ratio)” value was -3.24.

Regarding G120U G135U, the “polymerase ribozyme fitness (log ratio)” value is -1.2.

On to A111G G117U, for which the “polymerase ribozyme fitness (log ratio)” value is -4.12.

A111G G117A: the “polymerase ribozyme fitness (log ratio)” value was -1.65. C114A G117C: the “polymerase ribozyme fitness (log ratio)” value was -4.77. Take A111C G128A: the “polymerase ribozyme fitness (log ratio)” value is -1.07.

A111C A119C G127U: the “polymerase ribozyme fitness (log ratio)” value was -2.96. Under U112G G128U stands -2.4.

C115A U133A: the “polymerase ribozyme fitness (log ratio)” value came out at 0.127.

Regarding C123U U134C, the “polymerase ribozyme fitness (log ratio)” value stood at 1.29. Under G120A G127A stands -0.68. Under G120A G127U stands 0.172; under G122A U126A, -2.34. Under C114G C123A stands -1.74. For C114G C123U, the “polymerase ribozyme fitness (log ratio)” value was -4.31. As to G110U A111G G113C, the “polymerase ribozyme fitness (log ratio)” value was -2.46. Under G117C U130A stands -5.1.

With G117C U130C, the “polymerase ribozyme fitness (log ratio)” value is -2.84.

Regarding C114A A119G C124G, the “polymerase ribozyme fitness (log ratio)” value is 0.223. Under G110U U133C stands 0.02; under C114A A119G, 0.218.

Regarding C115U G128C, the “polymerase ribozyme fitness (log ratio)” value is -3.16. Under G120A G122C stands -0.571.

Take U116G C123U G128A: the “polymerase ribozyme fitness (log ratio)” value was -5.61. Under U112G U133G stands -0.442. Under A121U U129G stands 1.22; under G113A C124A, -1.44; under G113A C124U, -0.971.

Turning to G113A C124G, the “polymerase ribozyme fitness (log ratio)” value is -0.302.

As to C114G U130G U133A, the “polymerase ribozyme fitness (log ratio)” value is -2.19. As to G110U A119U, the “polymerase ribozyme fitness (log ratio)” value was -1.65. Under G113C C124G stands -1.33; under U112A U133G, 1.43. Under U112A U133A stands 1.53; under C124A U133G, -0.27. Under G110U G120C G127A G128U stands -4.38.

For G113A G128U, the “polymerase ribozyme fitness (log ratio)” value was -2.37. Under G120A C123G stands 1.22. For the variant U116C A121G U129C, the “polymerase ribozyme fitness (log ratio)” value was -3.73. Under C115G U133G stands -0.9. Under A111G U112A stands -2.9.

As to C123A U132A, the “polymerase ribozyme fitness (log ratio)” value was determined as 1.54.

Regarding G110C A119U, the “polymerase ribozyme fitness (log ratio)” value is -1.71. Under A111C G113A stands -3.44; under C123A U125C U129G, -1.5.
